Where no end group is shown, it is not given here.
T1: S. cerevisiae Pex5p TPR domain (305 aa), Gal4p DNA-binding domain fusion (pAH987) (S. cerevisiae)
T1 sequence (P35056 whole entry, looked up): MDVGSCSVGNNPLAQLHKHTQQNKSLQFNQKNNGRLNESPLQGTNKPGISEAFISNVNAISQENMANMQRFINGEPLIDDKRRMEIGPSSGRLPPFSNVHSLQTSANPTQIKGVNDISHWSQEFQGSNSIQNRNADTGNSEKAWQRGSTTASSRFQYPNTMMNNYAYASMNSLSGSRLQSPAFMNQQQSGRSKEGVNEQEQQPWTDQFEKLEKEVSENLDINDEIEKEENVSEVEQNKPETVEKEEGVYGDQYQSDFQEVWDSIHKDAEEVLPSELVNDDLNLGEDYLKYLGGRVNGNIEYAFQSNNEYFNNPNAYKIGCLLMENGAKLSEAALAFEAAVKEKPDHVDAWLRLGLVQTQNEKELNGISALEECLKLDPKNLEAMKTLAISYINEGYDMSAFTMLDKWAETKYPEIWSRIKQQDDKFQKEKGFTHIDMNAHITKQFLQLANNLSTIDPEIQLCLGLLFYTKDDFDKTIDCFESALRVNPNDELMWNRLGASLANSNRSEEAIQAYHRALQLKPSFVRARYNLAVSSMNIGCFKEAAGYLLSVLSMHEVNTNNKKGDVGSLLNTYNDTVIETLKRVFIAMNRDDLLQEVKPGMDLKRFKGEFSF


molecular target: C. elegans PEX-5 TPR domain (267 aa), Gal4p DNA-binding domain fusion (pSL8) (C. elegans); assay: two-hybrid; yeast strain PCY3; Pex5 TPR domain in pGBT9 (Gal4p DNA-binding domain) with Gal4p activation domain-peptide fusions in pGAD GH; b-galactosidase activity measured with O-nitrophenyl-b-D-galactoside on cells grown at 30 C in liquid selective medium; mean of three independent experiments per strain; conditions: scale: nmol O-nitrophenyl-b-D-galactoside hydrolysed/min/mg protein

Binder | b-Galactosidase activity
Gal4p-EGLIVMLERGKL | 143
Gal4p-WYGPGPGCCRRRDLKL (cysteine pairing not given here) | 4.4
Gal4p-RQRELSANALGGLAKL | 447
Gal4p-TWNRETKGLNAVYGKL | 90.3
Gal4p-QRKANGRDRGGWWAKL | 631
Gal4p-SGGVVARAAKM | 293

Continued, values first:

b-Galactosidase activity | Binder
57.9 | Gal4p-GKNRGSESHGSARQKL
352 | Gal4p-NGMTRSGRQGGGFAKL
3.8 | Gal4p-KRVWRRQWSTGRKLKL

molecular target: T1, S. cerevisiae Pex5p TPR domain (305 aa), Gal4p DNA-binding domain fusion (pAH987) (S. cerevisiae); assay: as above; conditions: scale: nmol O-nitrophenyl-b-D-galactoside hydrolysed/min/mg protein

b-Galactosidase activity | Binder
39 | Gal4p-FEWGSQGWTRGRMHML
163 | Gal4p-CERSKL [Gal4p-CERSKL]

— PMC2448379
